{
  "source": "paper PMC7517009",
  "about": "“Variants of the human RAD52 gene confer defects in ionizing radiation resistance and homologous recombination repair in budding yeast” (Microbial Cell, 2020)",
  "proteins": {"B1": {"name": "HsRAD52_(1-212), the N-terminal 212 amino acids of HsRAD52 (domain or fragment, human, UniProt P43351 1-212, looked up)", "chain": "MSGTEEAILGGRDSHPAAGGGSVLCFGQCQYTAEEYQAIQKALRQRLGPEYISSRMAGGGQKVCYIEGHRVINLANEMFGYNGWAHSITQQNVDFVDLNNGKFYVGVCAFVRVQLKDGSYHEDVGYGVSEGLKSKALSLEKARKEAVTDGLKRALRSFGNALGNCILDKDYLRSLNKLPRQLPLEVDLTKAKRQDLEPSVEEARYNSCRPNM", "notes": "RAD52, human, N-terminal 212 amino acids (1-212); pET28b construct; also called pLAY855; source: E. coli Artic Express, purified (Ni-NTA, heparin, Superdex 200)"}, "B2": {"name": "HsRAD52-G59R_(1-212), the N-terminal 212 amino acids of HsRAD52-G59R (domain or fragment, human, UniProt P43351 1-212, looked up)", "chain": "B1 chain with G59R", "notes": "RAD52, human, N-terminal 212 amino acids (1-212) with the naturally occurring variant G59R; pET28b construct; also called pLAY971; source: E. coli Artic Express, purified (Ni-NTA, heparin, Superdex 200)"}, "B3": {"name": "HsRAD52-S346X, His-tagged, bacterially expressed (domain or fragment, human, UniProt P43351 1-345, looked up)", "chain": "MSGTEEAILGGRDSHPAAGGGSVLCFGQCQYTAEEYQAIQKALRQRLGPEYISSRMAGGGQKVCYIEGHRVINLANEMFGYNGWAHSITQQNVDFVDLNNGKFYVGVCAFVRVQLKDGSYHEDVGYGVSEGLKSKALSLEKARKEAVTDGLKRALRSFGNALGNCILDKDYLRSLNKLPRQLPLEVDLTKAKRQDLEPSVEEARYNSCRPNMALGHPQLQQVTSPSRPSHAVIPADQDCSSRSLSSSAVESEATHQRKLRQKQLQQQFRERMEKQQVRVSTPSAEKSEAAPPAPPVTHSTPVTVSEPLLEKDFLAGVTQELIKTLEDNSEKWAVTPDAGDGVVKP", "notes": "RAD52, human, naturally occurring truncating variant S346X (stop codon in place of S346); pET28b construct; also called pLAY970; source: E. coli Artic Express, purified (Ni-NTA, heparin, Superdex 200)"}, "B4": {"name": "HsRAD52 (human RAD52), wild type, Gal4 fusion proteins (natural protein, UniProt P43351 1-418, looked up)", "chain": "MSGTEEAILGGRDSHPAAGGGSVLCFGQCQYTAEEYQAIQKALRQRLGPEYISSRMAGGGQKVCYIEGHRVINLANEMFGYNGWAHSITQQNVDFVDLNNGKFYVGVCAFVRVQLKDGSYHEDVGYGVSEGLKSKALSLEKARKEAVTDGLKRALRSFGNALGNCILDKDYLRSLNKLPRQLPLEVDLTKAKRQDLEPSVEEARYNSCRPNMALGHPQLQQVTSPSRPSHAVIPADQDCSSRSLSSSAVESEATHQRKLRQKQLQQQFRERMEKQQVRVSTPSAEKSEAAPPAPPVTHSTPVTVSEPLLEKDFLAGVTQELIKTLEDNSEKWAVTPDAGDGVVKPSSRADPAQTSDTLALNNQMVTQNRTPHSVCHQKPQAKSGSWDLQTYSADQRTTGNWESHRKSQDMKKRKYDPS", "notes": "RAD52, human, wild type; no chain carries both; Probably the whole protein; also called pGBT9-HsRAD52; pGAD424-HsRAD52; source: yeast two-hybrid fusion, yeast strain Y187"}},
  "key": {"[1]": {"target": "the molecule itself", "experiment": "SEC; Superdex 200 in 10 mM Tris HCl, 300 mM NaCl, 2 mM BME, pH 8.0, 0.5 mL/min; size of the multimer estimated from the elution volume"}, "[2]": {"target": "the molecule itself", "experiment": "two-hybrid; Gal4 DNA-binding domain (pGBT9) and Gal4 transcription activation domain (pGAD424) fusions in yeast strain Y187; beta-galactosidase specific activity in cell extracts, Miller units"}},
  "note": "Positions count from the first letter of the chain named. In names and notes the source's numbering stands. Several values for one entry are separate records, joined by “and”; a condition that tells them apart may be missing. Identical values can stand only once.",
  "data": [
    {"protein": "B1", "values": [
      {"measurement": "stoichiometry N", "setting": "[1]", "result": "13 subunits and 14 subunits"}
    ]},
    {"protein": "B2", "values": [
      {"measurement": "stoichiometry N", "setting": "[1]", "result": "13 subunits and 14 subunits"}
    ]},
    {"protein": "B3", "values": [
      {"measurement": "stoichiometry N", "setting": "[1]", "result": "~6 subunits and ~8 subunits"}
    ]},
    {"protein": "B4", "values": [
      {"measurement": "beta-galactosidase activity, fold above background", "setting": "[2]", "result": 80, "unit": "fold"}
    ]}
  ]
}
